Reference: article PMC8917853, “Synthesis and evaluation of ^99mTc-DOTA-ARA-290 as potential SPECT tracer for targeting cardiac ischemic region” (Iranian Journal of Basic Medical Sciences, 2021)
Residues, ends and D or L forms follow the SMILES beside them. *: point of attachment. DOTA = O=C(O)CN1CCN(CC(=O)O)CCN(CC(=O)*)CCN(CC(=O)O)CC1; X1 = CN(C)c1ccc(/N=N/c2ccc(C(=O)*)cc2)cc1

Experiments:
in vivo = experiment: in vivo
Description: To study ischemia-induced myocardial injuries, male Wistar rats weighing 200~250 gr were sorted into three groups of four (n=4): (1) normal group, (2) Ischemic group, and (3) sham group. The rats were anesthetized by intraperitoneal (IP) administration of 3 % pentobarbital sodium (60 mg/kg). Positive pressure mechanical ventilation was made by a Shinano respirator (SN-480–4) and an open-heart operation was done at the level of the left 4th–5th ribs. The rats received intramuscular injections of penicillin sodium (0.8 mg/g) to prevent infection. Myocardial ischemia was induced by a slipknot (4–0 silk suture) around the LAD about 2–3 mm near its origin. After 30-min ischemia, the slipknot was loosened to restore normal circulation for reperfusion ([28]). […] In the same group, heart surgery was performed without LAD artery occlusion.
The biodistribution of radiopeptide among tissues was measured by sacrifice of rats for each elected interval (30, 60, 180, and 360 min) post-injection. Various tissues, including heart, bone, kidneys, muscle, salivary glands, spleen, and intestines, were removed immediately and rinsed with saline solution to clean their residual blood. Moreover, blood samples for monitoring radioactivity were taken from the heart by a heparin-impregnated syringe after sacrificing. The percentage of injected activity per gram (%ID/g) for different organs was measured by dividing the activity of each organ per decayed total injected activity and mass of each organ. Moreover, in ischemic rats, 100 μg unlabeled peptide was co-injected with radiolabeled peptide to analyze the in vivo blocking test.

[1] = biological target: T1, EPOR-BcR receptor on H9c2 myocardial cells (Rattus norvegicus, UniProt Q07303+Q78ZF5); experiment: In vitro hypoxia test: binding to hypoxic vs normoxic H9c2 myocardial cells; format: cell-based; settings: for binding to hypoxic cells relative to normoxic cells: H9c2 cells, 250 pmol radiopeptide, 37 °C, triplicate
T1 construct: endogenous in cells; host or cells: H9c2 myocardial cells (hypoxic vs normoxic culture)
T1 sequence (Q07303 25-507): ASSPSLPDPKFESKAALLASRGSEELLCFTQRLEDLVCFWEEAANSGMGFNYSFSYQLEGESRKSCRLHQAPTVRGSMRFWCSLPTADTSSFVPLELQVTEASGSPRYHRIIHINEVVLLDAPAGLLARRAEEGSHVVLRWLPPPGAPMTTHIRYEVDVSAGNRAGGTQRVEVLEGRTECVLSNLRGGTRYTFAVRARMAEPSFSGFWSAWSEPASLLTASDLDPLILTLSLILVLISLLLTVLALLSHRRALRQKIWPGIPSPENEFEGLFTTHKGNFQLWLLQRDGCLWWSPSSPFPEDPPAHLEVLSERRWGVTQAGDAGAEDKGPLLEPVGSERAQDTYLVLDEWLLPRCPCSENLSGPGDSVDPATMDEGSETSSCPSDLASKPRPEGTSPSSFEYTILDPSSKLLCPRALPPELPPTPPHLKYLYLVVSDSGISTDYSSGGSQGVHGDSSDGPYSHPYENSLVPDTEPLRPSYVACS
T1 sequence (Q78ZF5 29-896): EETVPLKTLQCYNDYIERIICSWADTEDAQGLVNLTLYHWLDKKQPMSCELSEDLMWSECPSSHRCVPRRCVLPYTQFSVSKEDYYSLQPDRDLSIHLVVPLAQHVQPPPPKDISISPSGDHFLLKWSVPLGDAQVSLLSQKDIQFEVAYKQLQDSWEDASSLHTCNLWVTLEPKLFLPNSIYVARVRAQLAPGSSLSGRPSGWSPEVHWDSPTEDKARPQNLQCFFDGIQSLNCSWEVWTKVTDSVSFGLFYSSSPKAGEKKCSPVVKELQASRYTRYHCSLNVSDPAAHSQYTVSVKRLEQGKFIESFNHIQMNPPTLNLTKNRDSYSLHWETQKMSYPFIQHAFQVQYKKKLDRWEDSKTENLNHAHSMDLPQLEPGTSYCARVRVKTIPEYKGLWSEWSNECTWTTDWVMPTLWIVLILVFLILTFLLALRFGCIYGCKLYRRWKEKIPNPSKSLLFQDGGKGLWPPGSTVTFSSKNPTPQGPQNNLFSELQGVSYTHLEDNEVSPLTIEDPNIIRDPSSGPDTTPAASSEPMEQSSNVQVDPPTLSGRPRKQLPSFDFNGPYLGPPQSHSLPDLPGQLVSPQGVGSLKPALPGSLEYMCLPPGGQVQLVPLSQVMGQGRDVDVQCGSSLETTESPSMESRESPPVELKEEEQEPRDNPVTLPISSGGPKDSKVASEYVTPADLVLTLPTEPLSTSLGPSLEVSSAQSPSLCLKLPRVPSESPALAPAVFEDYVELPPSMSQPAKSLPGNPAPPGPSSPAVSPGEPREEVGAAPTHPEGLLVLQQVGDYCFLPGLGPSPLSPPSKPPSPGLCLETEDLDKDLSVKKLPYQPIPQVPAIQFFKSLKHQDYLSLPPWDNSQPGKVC
Description: H9c2 myocardial cells were separated into three groups. The normoxic control group (negative EPOR-BcR receptor) was cultured in a normoxic (20% O2) culture medium. Hypoxic group (positive EPOR-BcR receptor) was cultured in a different time interval (1-4 hr) hypoxic culture condition (5% CO2 and 2% O2) and blocking test (specific binding assay) in the hypoxic condition. […] The cells for triplicate were placed inside confocal plates (Costar) at a density of 1 × 10^5 per well, then treated with almost 250 pmol of ^99mTc-DOTA-(Lys-Dabcyl^6,Phe^7)-ARA-290 subject to 0.025 MBq at 37 °C. Incubation was disrupted with 1 ml of chilled PBS. Afterward, the cells were separated by […] to measure the cell-bound level of ^99mTc-DOTA-(Lys-Dabcyl^6,Phe^7)-ARA-290 by a scintillator. EPOR-BcR receptor blocking was done by using 50-fold extra of the unlabeled peptide in 30 min before the injection of the labeled peptide.

cardiac ischemic region = experiment: Planar SPECT scintigraphy in ischemic and normal rats; format: in vivo, rat; settings: 200 MBq
Description: 30 and 90 min post-injection of ^99mTc-DOTA-(Lys-Dabcyl^6,Phe^7)-ARA-290 (200 MBq) into ischemic and normal rats, planar images were captured by a dual-head SPECT system (E.cam, Siemens, Germany) that was arranged with low energy high-resolution collimators, a 128*128 matrix size, and a 20% energy window set at 140 keV ([29]).

in vitro = settings: human, fresh human serum
Description: (§1) As an in vitro stability evaluation, radiolabeled peptides (specific activity= 18.5 MBq/nmol) were added to sodium chloride 0.9 % isotonic solution ([24]). After incubation at ambient temperature, samples were taken out at 0.06, 0.5, 1, 2, 4, and 6 hr. The radiochemical purity of the mixture was investigated by a TLC stripe. To survey biostability, 100 μl of the labeled compound was added to fresh human serum (1 ml) and incubated (37 °C, 5% CO2) at different time points (4, 30, 60, 120, 240, and 360 min). 100 μl aliquots of serum samples were then incubated with 100 μl of ethanol. Samples were centrifuged at 5000 rpm for 5 min at 37 °C and 20 µl supernatant was removed to assess the degradation of ^99mTc labeled peptide by TLC.

[2] = sodium chloride 0.9%, ambient temperature, up to 6 hr, TLC, specific activity 18.5 MBq/nmol, mean n=3
Description: as §1

[3] = male, Wistar, rat, blood, iv, 20 MBq, total radioactivity
[4] = male, Wistar, rat, bone, iv, 20 MBq, total radioactivity
[5] = male, Wistar, rat, heart, iv, 20 MBq, total radioactivity
[6] = male, Wistar, rat, intestines, iv, 20 MBq, total radioactivity
[7] = male, Wistar, rat, ischemic heart / lung, iv, 20 MBq, total radioactivity
[8] = male, Wistar, rat, ischemic heart, iv, 20 MBq, total radioactivity
[9] = male, Wistar, rat, kidneys, iv, 20 MBq, total radioactivity
[10] = male, Wistar, rat, liver, iv, 20 MBq, total radioactivity
[11] = male, Wistar, rat, lung, iv, 20 MBq, total radioactivity
[12] = male, Wistar, rat, muscle, iv, 20 MBq, total radioactivity
[13] = male, Wistar, rat, salivary gland and thyroid, iv, 20 MBq, total radioactivity
[14] = male, Wistar, rat, spleen, iv, 20 MBq, total radioactivity
[15] = male, Wistar, rat, stomach, iv, 20 MBq, total radioactivity

CC(C)C[C@H](NC(=O)[C@H](Cc1ccccc1)NC(=O)[C@H](CCCCNC(=O)c1ccc(/N=N/c2ccc(N(C)C)cc2)cc1)NC(=O)[C@H](CCC(=O)O)NC(=O)[C@H](CC(C)C)NC(=O)[C@H](CCC(N)=O)NC(=O)[C@H](CCC(=O)O)NC(=O)[C@H](CCC(=O)O)NC(=O)CN1CCN(CC(=O)O)CCN(CC(=O)O)CCN(CC(=O)O)CC1)C(=O)N[C@@H](CC(N)=O)C(=O)N[C@@H](CO)C(=O)N[C@@H](CO)C(=O)O [99mTc-DOTA-(Lys-Dabcyl6,Phe7)-ARA-290, metal not drawn] ({DOTA}-EEQLEK(X1)FLNSS-OH; C-terminus assumed)
Isch heart/Th ratio (in vivo; 60 min p.i., block with 100 μg unlabeled peptide, ischemic rats): 1.04
Isch heart/Lung ratio (in vivo; 180 min p.i., ischemic rats): 2.61
Isch heart/Th ratio (in vivo; 180 min p.i., ischemic rats): 4.68
Isch heart/Th ratio (in vivo; 360 min p.i., ischemic rats): 6.01
tissue uptake at 0.5 h (in vivo; [3]): 1.52 ± 0.29 %ID/g
tissue uptake at 1 h (in vivo; [3]): 0.96 ± 0.16 %ID/g
tissue uptake at 3 h (in vivo; [3]): 0.44 ± 0.28 %ID/g
tissue uptake at 6 h (in vivo; [3]): 0.12 ± 0.87 %ID/g
tissue uptake at 0.5 h (in vivo; [4]): 0.75 ± 0.41 %ID/g
tissue uptake at 1 h (in vivo; [4]): 0.53 ± 0.21 %ID/g
tissue uptake at 3 h (in vivo; [4]): 0.32 ± 0.21 %ID/g
tissue uptake at 6 h (in vivo; [4]): 0.16 ± 0.29 %ID/g
tissue uptake at 0.5 h (in vivo; [5]): 0.62 ± 0.15 %ID/g
tissue uptake at 1 h (in vivo; [5]): 0.31 ± 0.18 %ID/g
tissue uptake at 3 h (in vivo; [5]): 0.21 ± 0.32 %ID/g
tissue uptake at 6 h (in vivo; [5]): 0.14 ± 0.23 %ID/g
tissue uptake at 0.5 h (in vivo; [6]): 1.73 ± 0.1 %ID/g
tissue uptake at 1 h (in vivo; [6]): 3.22 ± 0.78 %ID/g
tissue uptake at 3 h (in vivo; [6]): 2.89 ± 0.08 %ID/g
tissue uptake at 6 h (in vivo; [6]): 2.35 ± 0.25 %ID/g
tissue to tissue ratio at 0.5 h (in vivo; [7]): 3.65
tissue to tissue ratio at 1 h (in vivo; [7]): 4.31
tissue to tissue ratio at 6 h (in vivo; [7]): 3.37
tissue uptake at 0.5 h (in vivo; [8]): 3.44 ± 0.32 %ID/g
tissue uptake at 1 h (in vivo; [8]): 3.28 ± 0.52 %ID/g
tissue uptake at 3 h (in vivo; [8]): 1.36 ± 0.44 %ID/g
tissue uptake at 6 h (in vivo; [8]): 1.08 ± 0.94 %ID/g
tissue uptake at 0.5 h (in vivo; [9]): 10.6 ± 0.48 %ID/g
tissue uptake at 1 h (in vivo; [9]): 14.29 ± 0.01 %ID/g
tissue uptake at 3 h (in vivo; [9]): 8.58 ± 0.1 %ID/g
tissue uptake at 6 h (in vivo; [9]): 4.06 ± 0.43 %ID/g
tissue uptake at 0.5 h (in vivo; [10]): 3.55 ± 0.21 %ID/g
tissue uptake at 1 h (in vivo; [10]): 4.28 ± 0.15 %ID/g
tissue uptake at 3 h (in vivo; [10]): 3.49 ± 0.09 %ID/g
tissue uptake at 6 h (in vivo; [10]): 2.08 ± 0.28 %ID/g
tissue uptake at 0.5 h (in vivo; [11]): 0.94 ± 0.58 %ID/g
tissue uptake at 1 h (in vivo; [11]): 0.76 ± 0.77 %ID/g
tissue uptake at 3 h (in vivo; [11]): 0.52 ± 0.19 %ID/g
tissue uptake at 6 h (in vivo; [11]): 0.32 ± 0.22 %ID/g
tissue uptake at 0.5 h (in vivo; [12]): 0.53 ± 0.42 %ID/g
tissue uptake at 1 h (in vivo; [12]): 0.42 ± 0.84 %ID/g
tissue uptake at 3 h (in vivo; [12]): 0.25 ± 0.87 %ID/g
tissue uptake at 6 h (in vivo; [12]): 0.17 ± 0.31 %ID/g
tissue uptake at 0.5 h (in vivo; [13]): 0.79 ± 0.41 %ID/g
tissue uptake at 1 h (in vivo; [13]): 0.62 ± 0.15 %ID/g
tissue uptake at 3 h (in vivo; [13]): 0.29 ± 0.29 %ID/g
tissue uptake at 6 h (in vivo; [13]): 0.18 ± 0.81 %ID/g
tissue uptake at 0.5 h (in vivo; [14]): 2.56 ± 0.21 %ID/g
tissue uptake at 1 h (in vivo; [14]): 2.31 ± 0.12 %ID/g
tissue uptake at 3 h (in vivo; [14]): 1.16 ± 0.22 %ID/g
tissue uptake at 6 h (in vivo; [14]): 0.44 ± 0.29 %ID/g
tissue uptake at 0.5 h (in vivo; [15]): 0.88 ± 0.44 %ID/g
tissue uptake at 1 h (in vivo; [15]): 0.71 ± 0.31 %ID/g
tissue uptake at 3 h (in vivo; [15]): 0.54 ± 0.28 %ID/g
tissue uptake at 6 h (in vivo; [15]): 0.32 ± 0.19 %ID/g
binding to hypoxic cells relative to normoxic cells ([1]; hypoxia 2% O2 vs normoxia 20% O2, 1 hr): 3 fold
binding to hypoxic cells relative to normoxic cells ([1]; hypoxia 2% O2 vs normoxia 20% O2, 4 hr): ~5 fold
binding to hypoxic cells in blocking test ([1]; hypoxic H9c2 cells, 50 mol excess of unlabeled peptide 30 min before radiopeptide): the same result was obtained for the normoxic cells
binding affinity to H9c2 cells under normoxic situations ([1]; normoxic 20% O2, H9c2 cells): very low
scintigraphy: ischemic region uptake (cardiac ischemic region; cardiac ischemic rats, planar images at 30 and 90 min post-injection): considerable ischemic region uptake
scintigraphy: cardiac accumulation (cardiac ischemic region; normal rat, 30 min post-injection): not detectable
remaining at 4 h (in vitro): 94%
remaining at 6 h (in vitro): 93%
saline stability of radiopeptide (radiochemical purity remaining) [2]: 95%
